Source: PMC2956136

Molecular target: GST-RanQ69LGTP (UniProt P62826)
Test: SPR

drop in response units with 5 μM Iβ1A against the DMSO control: 70%
Substance: importin β (from UniProt Q14974 1-876) (natural protein; other documents disagree on this pair)
